Reference: patent US20230250190A1 (published 2023)
Changes are numbered by the printed parent chain.

B1: SEQ ID NO 9 (bivalent monospecific MUC1 IgG) (antibody, V domains shown)
VH: QVQLVQSGAEVKKPGASVKVSCKASGYTFNRHYIQWVRQAPGQGLEWMGTINPYDGSTHYAQKFQGRVTLTRDTSTTTVYMELSSLRSEDTAVYYCARDYMIGYVVFDYWGQGTLVTVSS
VL: not shown
B2: 25 (antibody, V domains shown)
VH: QVQLVESGAEVKKPGASVKVSCKASGYTFARYYVHWVRQAPGQGLEWMGLINPYGGATNYAQNFQGRVTMTRDTSTSTVYMELSSLRSEDTAVYYCARDAMGGDSYFDYWGQGTLVTVSS
B3: 86 (antibody, V domains shown)
VH: QVQLVQSGAEVKKPGASVKVSCKASGYPFINYYIQWVRQAPGQGLEWMGVINPFDGSTNYAQKFQGRVTVTRDTSTSTVFMDLSSLRSEDTAVYYCARDNMIGYVLFDYWGQGTLVTVSS
B4: 90 (antibody, V domains shown)
VH: B3 VH with P28T, Y32H, Q35H, M81L
B5: SEQ ID NO 78 (bivalent monospecific MUC1 IgG) (antibody, V domains shown)
VH: B3 VH with A16T, P28S, N31H, Q35H, M48V, T78A
VL: not shown
B6: SEQ ID NO 45 (bivalent monospecific MUC1 IgG) (antibody, V domains shown)
VH: B3 VH with Q6E, A9T, P28S, N31H, Q35H, Q43R, Y60S, K63N, I102L, Y109H
VL: not shown
B7: SEQ ID NO 29 (bivalent monospecific MUC1 IgG) (antibody, V domains shown)
VH: B3 VH with P28S, N31H, Q35H, G66D, Y109D
VL: not shown
B8: SEQ ID NO 57 (bivalent monospecific MUC1 IgG) (antibody, V domains shown)
VH: B3 VH with Q6E, A9T, P28S, N31H, Q35H, Q43R, K63N, Y109H
VL: not shown
B9: 82 (antibody, V domains shown)
VH: B3 VH with P28T, I30T, N31S, Q35H, F54Y, G56S, V70M
B10: 174 (antibody, V domains shown)
VH: EVQLVESGAEVKKPGASVKVSCKASGYTFNRYYLHWVRQAPGQGLEWMGVINPYDGSTNYAQKFRGRITMTRDTSTNTVYMELSSLRSEDTAVYFCARDAMEGDSYFDKWGQGTLVTVSS
B11: 13 (antibody, V domains shown)
VH: B1 VH with V18L, N30T, R31N, H32Y, T50V, H59N, E89D
B12: 106 (antibody, V domains shown)
VH: B1 VH with V11M, V20I, N30T, R31N, H32Y, T50V, H59N, K63R, Y109F
B13: SEQ ID NO 5 (bivalent monospecific MUC1 IgG) (antibody, V domains shown)
VH: B1 VH with A24T, N30T, H32Y, T50V, H59N, L70V, T77F, I102R, V106I
VL: not shown
B14: SEQ ID NO 178 (bivalent monospecific MUC1 IgG) (antibody, V domains shown)
VH: B1 VH with H59F, G66D, L70M, T77S, E82D, S84N, R87K, I102R, Y104H, V106L
VL: not shown

Target: T1, T7 (Tn-MUC1) (PAPGS(α-GalNAc)T(α-GalNAc)APPAHGVTSAPDTRPAPG-OH)
T1 peptide: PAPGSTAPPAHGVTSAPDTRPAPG
Test: glycopeptide array

Binder	EC50 [µg/mL]
B1	64

Target: T2, T4 (Tn-MUC1) (PAPGSTAPPAHGVT(α-GalNAc)SAPDTRPAPG-OH)
T2 peptide: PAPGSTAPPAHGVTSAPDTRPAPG
Test: glycopeptide array

Binder	EC50 [µg/mL]
B2	0.1
B3	0.057
B4	0.118
B5	0.034
B6	0.084
B7	0.104
B8	0.112
B9	0.145
B10	0.178
B11	0.153
B12	0.037
B13	0.116
B14	0.103
B1	0.031

Target: T3, T8 (Tn-MUC1) (PAPGST(α-GalNAc)APPAHGVTSAPDT(α-GalNAc)RPAPG-OH)
T3 peptide: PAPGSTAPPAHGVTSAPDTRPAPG
Test: glycopeptide array

Binder	EC50 [µg/mL]
B2	0.113
B3	0.061
B4	0.12
B5	0.032
B6	0.088
B7	0.121
B8	0.114
B9	0.196
B10	0.174
B11	0.145
B12	0.036
B13	0.123
B14	0.095
B1	0.034

Target: T4, T9 (Tn-MUC1) (PAPGSTAPPAHGVT(α-GalNAc)S(α-GalNAc)APDTRPAPG-OH)
T4 peptide: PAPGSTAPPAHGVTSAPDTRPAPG
Test: glycopeptide array

Binder	EC50 [µg/mL]
B2	0.119
B3	0.05
B4	0.102
B5	0.032
B6	0.083
B7	0.118
B8	0.109
B9	0.167
B10	0.144
B11	0.134
B12	0.032
B13	0.113
B14	0.09
B1	0.039

Target: T5, T3 (Tn-MUC1) (PAPGST(α-GalNAc)APPAHGVTSAPDTRPAPG-OH)
T5 peptide: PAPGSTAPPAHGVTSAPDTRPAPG
Test: glycopeptide array

Binder	EC50 [µg/mL]
B2	38.6
B5	37.9
B6	52.2
B12	99.3
B1	21.6

Target: T6, T11 (Tn-MUC1) (PAPGSTAPPAHGVT(α-GalNAc)SAPDT(α-GalNAc)RPAPG-OH)
T6 peptide: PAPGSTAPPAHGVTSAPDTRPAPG
Test: glycopeptide array

Binder	EC50 [µg/mL]
B2	0.129
B3	0.068
B4	0.126
B5	0.041
B6	0.093
B7	0.126
B8	0.123
B9	0.227
B10	0.192
B11	0.158
B12	0.043
B13	0.127
B14	0.108
B1	0.041

Target: T7, S11 (sTn-MUC1) (PAPGSTAPPAHGVT(Neu5Ac-α(2-6)-GalNAc)SAPDT(Neu5Ac-a(2-6)-GalNAc)RPAPG-OH)
T7 peptide: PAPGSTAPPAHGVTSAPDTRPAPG
Test: glycopeptide array

Binder	EC50 [µg/mL]
B3	13.1
B4	67.4
B5	0.477
B6	4.06
B7	6.96
B8	0.939
B9	58.6
B13	0.296
B14	0.335
B1	0.053

Target: T8, S4 (sTn-MUC1) (PAPGSTAPPAHGVT(Neu5Ac-α(2-6)-GalNAc)SAPDTRPAPG-OH)
T8 peptide: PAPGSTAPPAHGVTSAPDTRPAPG
Test: glycopeptide array

Binder	EC50 [µg/mL]
B3	0.074
B4	0.126
B5	0.039
B6	0.089
B7	0.118
B8	0.119
B9	0.173
B11	0.156
B13	0.12
B14	0.098
B1	0.031

Target: T9, S9 (sTn-MUC1) (PAPGSTAPPAHGVT(Neu5Ac-α(2-6)-GalNAc)S(Neu5Ac-a(2-6)-GalNAc)APDTRPAPG-OH)
T9 peptide: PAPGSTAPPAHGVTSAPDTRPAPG
Test: glycopeptide array

Binder	EC50 [µg/mL]
B3	0.105
B4	0.207
B5	0.067
B6	0.135
B7	0.22
B8	0.16
B9	0.83
B11	0.279
B13	0.137
B14	0.108
B1	0.046
